Test results: US20050069542A1 (Human Genome Sciences, published 2005)

T1: flag-tagged soluble TL3 (amino acids 105-251 of SEQ ID NO:234) (Homo sapiens (Human), UniProt O75888 105-250)
T1 construct: Heterologous flag-tagged control protein, immobilized in the ELISA; also called flagged tagged TL-3; not shown: Flag tag
T1 sequence: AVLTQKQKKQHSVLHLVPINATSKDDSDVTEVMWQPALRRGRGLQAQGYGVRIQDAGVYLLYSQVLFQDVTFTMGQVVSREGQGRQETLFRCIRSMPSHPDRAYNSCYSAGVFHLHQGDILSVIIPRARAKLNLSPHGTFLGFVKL


Target: T1, flag-tagged soluble TL3 (amino acids …)
Test: phage ELISA on immobilized flag-tagged soluble TL3
Method in brief: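 Phage displaying scFvs selected against flag-tagged GMAD were screened by ELISA against immobilized flag-tagged soluble TL3 (residues 105-251) as a heterologous flag-tagged counter-target, to check that binding is GMAD-specific.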

Row | binding result | Binder
1 | no binding | GMCC129 (scFv) scFv: EVQLVETGGGLAQPGGSLRLSCEASGFTFNNYAMSWVRQAPGKGLEWVSGISISGYSTFYTDSVQGRFTISRDNSKNTLYLQMNSLGVDDTAVYYCAKRRGEGGDFDYWGRGTMVTVSSGGGGSGGGGSGGGGSALSSELTQDPAVSVALGQTVRITCQGDSLRGYYASWYQQKAGQAPVLVIYGKNNRPSGIPDRFSGSSSGNTASLTITGAQAEDEADYYCYSRDRSGNHLGMFGGGTKVTVLG
2 | no binding | GMCC124 (scFv) scFv: QVTLKESGAEVKKPGASVKVSCKASGYTFTDNALHWVRQAPGQRPEWMAWINTANGNTRYSQKFQGRLTITRDTSASTAFMDLSSLRSEDTAVYYCARQKAYKNYYYYYGMDVWGQGTLVTVSSGGGGSGGGGSGGGGSAQSVVTQPPSVSAAPGQKVTISCSGSSSNIGNNYVSWYQQLPGTAPKLLIYENNKRPSGIPDRFSGSQSGTSATLGISGLQTGDEADYYCGTWDSSLRAGVFGGGTKLTVLG
3 | no binding | GMCC119 (scFv) scFv: EVQLVQSGPEVKKPGASVKVSCKASNYTFTTYDISWVRQAPGQGLEWMGWISTYSGNTKYAQKFQGRVTMTRDTSTSAAYMELRNLRSDDTAVYFCARDIRVWRGSGSVHYFDPWGRGTTVTVSSGGGGSGGGGSGGGGSAQSALTQPRSVSGSPGQSVTISCTGTSNDVGGYNFVSWYQQHPGKAPKLMVYNVSKRPSGVPDRFSGSKSGNTASLTISGLQAEDEADYYCSSYAHSYTLVFGGGTKVTVLG

The next lines start with the binder.

Row | Binder | binding result
4 | GMCC126 (scFv) scFv: QVQLQESGPGLVKPSQTLSLSCAVSGFSVTSGHYWGWIRQSPGKGLEWIGNIYHTGSTRYNPSLESRVSMSVDTSKNQFSLRLTSVTAADTAIYYCARVGRGQHLVRGDFDYWGRGTLVTVSSGGGGSGGGGSGGGGSAQSVLTQPPSISVSPGQTASITCSGDELGHKYASWYQQKPGQSPVVVVYQDNKRPSGIPERFSGSSSGNTATLTISGTQAVDEADYFCQAWDSSAVVFGGGTKLTVLG | no binding
5 | GMBC612 (scFv) scFv: EVQLVESGGGVVQPGGSLRLSCAASGFSFSSYGMQWVRQAPGKGLEWVAFIRYDGSIKYYADSVKGRFTVSRDNSKNTLYLQMNSLRAEDTAVYYCARGYRIVDYWGQGTLVTVSSGGGGSGGGGSGGGGSDIQMTQSPSTLSPSIGDRVTITCRASEGIYHWLAWYQQKPGKAPKLLIYKASSLASGAPSRFSGSGSGTDFTLTISSLQPDDFATYYCQQYSNYPLTFGGGTKLEIKR | no binding
6 | GMCC131 (scFv) scFv: QVQLQESGPGLVKPSETLSLTCSVSGGSIRSHYWSWMRQPPGKGLEWIGYVYYTGSTNYNPSLKSRVTMSVDTSKNQFSLNLSSVTAADTAIYYCARFPYSSGSNPLDYWGRGTLVTVSSGGGGSGGGGSGGGGSAQSVLTQPPSVSAAPGQRVTISCTGSSSNIGARYDVHWYQHLPGTAPKLLIYGDSNRPSGVPDRFSGSKSGTSASLAITGLQPEDEADYYCQSYDSSLSGVVFGGGTKVTVLG | no binding
7 | GMCC127 (scFv) scFv: QVQLVQSGGGVVRPGGSLRLSCAASGFTFDDYGMSWVRQAPGKGLEWVSGINWNGGSTGYADSVKGRFTISRDNAKNSLYLQMNSLRAEDTAVYYCARRRYALDYWGRGTLVTVSSGGGGSGGGGSGGGGSALSSELTQDPAVSVALGQAVRITCQGDSLRTNYASWYQQRPGQAPVLVIRGNNNRPSGIPDRFSGSNSGDTVSLTITGAQAEDEADYYCNSRDTSGYHYVFGTGTKLTVLG | no binding
8 | GMCC125 (scFv) scFv: EVQLVQSGGGLVKPGGSLRLSCAASGFSFSDYSMHWIRQAPGKGLEWLSHIGTSTSYTNYADSVKGRFTISRDNAKNSFYLQMNSLRVDDTAVYFCARGFGGLRGYFDYWGQGTLVTVSSGGGGSGGGGSGGGGSALSSELTQDPAVSVALGQTVKITCQGDRLRRFYASWYQQKPGQAPLLLIYGKNSRPSGIPDRFSGSTSGATASLTITGAQAEDEADYYCNSRDSSGSLHSVFGTGTKVTVLG | no binding
